Data published in publication PMC5012862, “Structural characterization of encapsulated ferritin provides insight into iron storage in bacterial nanocompartments” (eLife, 2016).
One block for each molecule: values may come before it.

What was measured:
[1] = target: EncFtnsH H65A mutant (Rhodospirillum rubrum) (UniProt Q2RVS1); experiment: native MS; nESI, 100 mM ammonium acetate pH 8.0, about 5 uM protein; apo protein made in minimal medium, no Fe2+ added
[2] = target: EncFtnsH H65A mutant (Rhodospirillum rubrum) (UniProt Q2RVS1); experiment: crystal structure; hanging drop, 292 K, 0.14 M calcium acetate, 15% PEG 3350; cryoprotectant with 1 mM FeSO4; three decamers in the asymmetric unit; mutants crystallized in the same manner
[3] = target: the molecule itself; experiment: SEC; size-exclusion chromatography of the purified full-length EncFtn; column and buffer not told for this protein
Q2RVS1 = experiment: SEC; analytical gel filtration, Superdex 200 PC 3.2/30 (Table 3 caption: 10/300 GL), 15 C, GF buffer; 90 uM EncFtnsH monomer or decamer fractions, alone or after 2 h at room temperature with one molar equivalent of metal salt
[4] = target: the molecule itself; experiment: SEC; preparative Superdex 200 16/60 after nickel affinity; 50 mM Tris-HCl pH 8.0, 150 mM NaCl; protein from E. coli grown in SeMet medium + 1 mM Fe(NH4)2(SO4)2, in MM, or in MM + 1 mM Fe(NH4)2(SO4)2
[5] = target: the molecule itself; experiment: as above; remark: listed apart in the source
[6] = target: the molecule itself; experiment: SEC; analytical gel filtration of EncFtnsH monomer at 700 uM, compared with 90 uM; no metal added

- stoichiometry N [1]: 2
- stoichiometry N [2]: 10
Molecule: EncFtnsH H65A mutant (from UniProt Q2RVS1 1-96) (domain or fragment)

B1: Rhodospirillum rubrum EncFtn, full-length sequence (140 amino acids), purified alone (natural protein, UniProt Q2RVS1 1-140, looked up)
chain: MAQSSNSTHEPLEVLKEETVNRHRAIVSVMEELEAVDWYDQRVDASTDPELTAILAHNRDEEKEHAAMTLEWLRRNDAKWAEHLRTYLFTEGPITAIEAADTAGEGSGGDAAKGATAQGDGSLGIGSLKGEAALARPPRL
notes: primers are in Supplementary file 2; also called encapsulated ferritin; source: E. coli, recombinant, purified (SEC)
- binding result [3]: binds

B2: EncFtnsH: truncated C-terminal hexahistidine-tagged variant of Rhodospirillum rubrum encapsulated ferritin (EncFtn, Rru_A0973), amino acids 1-96 plus the tag (domain or fragment, UniProt Q2RVS1 1-96, looked up)
chain: MAQSSNSTHEPLEVLKEETVNRHRAIVSVMEELEAVDWYDQRVDASTDPELTAILAHNRDEEKEHAAMTLEWLRRNDAKWAEHLRTYLFTEGPITA
notes: amino acids 1-96 of the 140-residue protein; Monomer predicted mass 13,194.53 Da with the tag; also called wild-type EncFtnsH; WT; source: for crystals anion exchange and SEC; not shown: His6, C-terminal, kept
- decamer/monomer peak area ratio (decamer fractions, no metal added, day 1) (Q2RVS1): 11.2
- decamer/monomer peak area ratio (monomer fractions, no metal added, day 1) (Q2RVS1): 0.1
- decamer/monomer peak area ratio (monomer fractions, no metal added, day 2) (Q2RVS1): 0.4
- decamer/monomer peak area ratio (monomer fractions, no metal added, day 3) (Q2RVS1): 0.3
- decamer/monomer peak area ratio (with Ca acetate) (Q2RVS1): 0.2
- decamer/monomer peak area ratio (with CoCl2) (Q2RVS1): 1.2
- decamer/monomer peak area ratio (with Fe(NH4)2(SO4)2) (Q2RVS1): 0.8
- decamer/monomer peak area ratio (with FeCl3) (Q2RVS1): 0.1
- decamer/monomer peak area ratio (with FeSO4-HCl) (Q2RVS1): 1
- decamer/monomer peak area ratio (with MgSO4) (Q2RVS1): 0.2
- decamer/monomer peak area ratio (with MnCl2) (Q2RVS1): 0.1
- decamer/monomer peak area ratio (with ZnSO4) (Q2RVS1): 2.3
- decamer/monomer peak area ratio (cells grown in MM + 1 mM Fe(NH4)2(SO4)2) [4]: 4.5
- stoichiometry N [5]: 10
- stoichiometry N [6]: 2

B3: EncFtnsH E62A mutant (domain or fragment, Rhodospirillum rubrum, UniProt Q2RVS1 1-96, looked up)
chain: MAQSSNSTHEPLEVLKEETVNRHRAIVSVMEELEAVDWYDQRVDASTDPELTAILAHNRDEAKEHAAMTLEWLRRNDAKWAEHLRTYLFTEGPITA
notes: amino acids 1-96, with E62A; Single mutant of EncFtnsH; source: E. coli BL21(DE3) grown in MM or MM supplemented with iron; purified (Superdex 200 SEC); not shown: His6, C-terminal, kept
- stoichiometry N [5]: 10

B4: EncFtnsH E32A mutant (domain or fragment, Rhodospirillum rubrum, UniProt Q2RVS1 1-96, looked up)
chain: MAQSSNSTHEPLEVLKEETVNRHRAIVSVMEALEAVDWYDQRVDASTDPELTAILAHNRDEEKEHAAMTLEWLRRNDAKWAEHLRTYLFTEGPITA
notes: amino acids 1-96, with E32A; Single mutant of EncFtnsH; source: E. coli BL21(DE3) grown in MM or MM supplemented with iron; purified (Superdex 200 SEC); not shown: His6, C-terminal, kept
- stoichiometry N [5]: 10
